Results as given in patent publication US20240132593A1 (KINETA, published 2024).

B1: Spiked Peptide 17 (LAQRHGLESASDHHG) (peptide)
peptide: LAQRHGLESASDHHG
notes: synthetic overlapping peptide from human VISTA
B2: Spiked Peptide 22 (LLDSGLYCCLVVEIR) (peptide)
peptide: LLDSGLYCCLVVEIR
notes: as for B1
B3: Spiked Peptide 20 (NFSITMRNLTLLDSG) (peptide)
peptide: NFSITMRNLTLLDSG
notes: as for B1
B4: Spiked Peptide 6 (GPVDKGHDVTFYKTW) (peptide)
peptide: GPVDKGHDVTFYKTW
notes: as for B1
B5: Spiked Peptide 7 (GHDVTFYKTWYRSSR) (peptide)
peptide: GHDVTFYKTWYRSSR
notes: as for B1
B6: Spiked Peptide 11 (CSERRPIRNLTFQDL) (peptide)
peptide: CSERRPIRNLTFQDL
notes: as for B1
B7: Spiked Peptide 12 (PIRNLTFQDLHLHHG) (peptide)
peptide: PIRNLTFQDLHLHHG
notes: as for B1
B8: Spiked Peptide 9 (YRSSRGEVQTCSERR) (peptide)
peptide: YRSSRGEVQTCSERR
notes: as for B1
B9: Spiked Peptide 19 (SDHHGNFSITMRNLT) (peptide)
peptide: SDHHGNFSITMRNLT
notes: as for B1
B10: Spiked Peptide 14 (HLHHGGHQAANTSHD) (peptide)
peptide: HLHHGGHQAANTSHD
notes: as for B1
B11: Spiked Peptide 10 (GEVQTCSERRPIRNL) (peptide)
peptide: GEVQTCSERRPIRNL
notes: as for B1
B12: Spiked Peptide 15 (GHQAANTSHDLAQRH) (peptide)
peptide: GHQAANTSHDLAQRH
notes: as for B1
B13: Spiked Peptide 3 (VCPEGQNVTLTCRLL) (peptide)
peptide: VCPEGQNVTLTCRLL
notes: as for B1
B14: Spiked Peptide 2 (PYSLYVCPEGQNVTL) (peptide)
peptide: PYSLYVCPEGQNVTL
notes: as for B1
B15: Spiked Peptide 5 (TCRLLGPVDKGHDVT) (peptide)
peptide: TCRLLGPVDKGHDVT
notes: as for B1
B16: Spiked Peptide 8 (FYKTWYRSSRGEVQT) (peptide)
peptide: FYKTWYRSSRGEVQT
notes: as for B1
B17: Spiked Peptide 13 (TFQDLHLHHGGHQAA) (peptide)
peptide: TFQDLHLHHGGHQAA
notes: as for B1
B18: Spiked Peptide 16 (NTSHDLAQRHGLESA) (peptide)
peptide: NTSHDLAQRHGLESA
notes: as for B1
B19: Spiked Peptide 18 (GLESASDHHGNFSIT) (peptide)
peptide: GLESASDHHGNFSIT
notes: as for B1
B20: Spiked Peptide 1 (FKVATPYSLYVCPEG) (peptide)
peptide: FKVATPYSLYVCPEG
notes: as for B1
B21: Spiked Peptide 4 (QNVTLTCRLLGPVDK) (peptide)
peptide: QNVTLTCRLLGPVDK
notes: as for B1
B22: Spiked Peptide 21 (MRNLTLLDSGLYCCL) (peptide)
peptide: MRNLTLLDSGLYCCL
notes: as for B1

Tests used:
Antibody No. 245.1 [1] = test: peptide blocking ELISA on plate-bound VISTA, peptide 20 ug/mL
Description: (§1) ELISA was used to measure the ability of sequential overlapping 15-mer synthetic peptides from human VISTA to block binding of an antibody to full length VISTA-ECD immobilized on a microtiter plate. Nickel coated ELISA plates were blocked with BSA and bound with 0.5 μg/mL VISTA protein (Human recombinant, produced in HEK 293 cells, SinoBiologics) for 1 h at room temperature. Anti-VISTA antibodies were diluted to 2-fold their EC₅₀ concentrations and pre-incubated at a 1:1 ratio with either 2 μg/mL or 20 μg/mL peptide solution in 0.5% BSA in PBST for 30 min at room temperature. Peptide-bound antibody solutions (50 μL) were added to each microtiter well and incubated for 1 h at room temperature, after which the ELISA plate was washed and processed as described above for standard ELISAs. Data are expressed as a percent reduction in ELISA signal obtained without preincubation with peptide solution.

VSTB174 [2] = test: as above
Chain of VSTB174 (VH, as listed by the source, chain 1 of 2): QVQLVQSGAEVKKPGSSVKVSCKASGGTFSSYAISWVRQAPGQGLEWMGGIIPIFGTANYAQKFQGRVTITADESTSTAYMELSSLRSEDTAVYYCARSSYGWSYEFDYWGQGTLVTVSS
Chain of VSTB174 (VL, as listed by the source, chain 2 of 2): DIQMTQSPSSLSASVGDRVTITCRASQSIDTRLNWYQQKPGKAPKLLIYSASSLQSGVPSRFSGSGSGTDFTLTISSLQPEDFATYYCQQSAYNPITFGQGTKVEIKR
Description: as §1

Antibody No. 465.1 [3] = biological target: T1, Antibody No. 465.1; test: as above
T1 construct: also called Ab No. 465.1
Description: as §1

Antibody No. 245.1 [4] = test: peptide blocking ELISA on plate-bound VISTA, peptide 2 ug/mL
Description: as §1

VSTB174 [5] = test: as above
Description: as §1

Antibody No. 465.1 [6] = biological target: T1, Antibody No. 465.1; test: as above
Description: as §1

Row | Binder | percent reduction in ELISA signal (Antibody No. 245.1 [1]) [%] | percent reduction in ELISA signal (VSTB174 [2]) [%] | percent reduction in ELISA signal (Antibody No. 465.1 [3]) [%] | percent reduction in ELISA signal (Antibody No. 245.1 [4]) [%] | percent reduction in ELISA signal (VSTB174 [5]) [%] | percent reduction in ELISA signal (Antibody No. 465.1 [6]) [%]
1 | B1 | 26 | 46 | 7 | 13 | 21 | 8
2 | B2 | 34 | 75 | 41 | 0 | 18 | 0
3 | B3 | 28 | 42 | 24 | 23 | 20 | 0
4 | B4 | 9 | 25 | 4 | 3 | 10 | 0
5 | B5 | 26 | 30 | 26 | 12 | 8 | 0
6 | B6 | 6 | 14 | 8 | 4 | 10 | 0
7 | B7 | 62 | 89 | 55 | 20 | 52 | 9
8 | B8 | 0 | 0 | 10 | 4 | 0 | 3
9 | B9 | 9 | 28 | 4 | 0 | 10 | 3
10 | B10 | 66 | 79 | 43 | 1 | 20 | 11
11 | B11 | 0 | 0 | 4 | 0 | 2 | 0
12 | B12 | 0 | 35 | 3 | 11 | 9 | 0
13 | B13 | 3 | 37 | 7 | 0 | 0 | 2
14 | B14 | 9 | 3 | 1 | 1 | 8 | 0
15 | B15 | 9 | 14 | 12 | 7 | 14 | 0
16 | B16 | 1 | 34 | 0 | 8 | 22 | 0
17 | B17 | 57 | 81 | 36 | 3 | 26 | 15
18 | B18 | 14 | 28 | 0 | 0 | 10 | 0
19 | B19 | 3 | 32 | 4 | 3 | 17 | 0
20 | B20 | 0 | 18 | 7 | 2 | 1 | 5
21 | B21 | 25 | 32 | 16 | 9 | 5 | 0
22 | B22 | 4 | 38 | 22 | 10 | 15 | 0
